These results are taken from paper doi:10.1101/2022.01.04.474980.

In this assay the target is FRQ WT peptide … (FFD and the double arginines) (N. crassa). Briefly: peptide or protein array.

The substance “FREQUENCY-Interacting RNA Helicase, FRHΔ100 (E. coli expressed, 6x His-tag) (from UniProt Q1K502 100-1106) (domain or fragment)” displayed a normalized microarray intensity of 64.
